Legend:
[1] = Dynamic light scattering (DLS) of DSG2 fusion polypeptides; type: physicochemical; conditions: for PDI: polymer distribution index
Description: 6 candidates were compared to the reference sample.

[2] = Melting temperature Tm of DSG2 fusion polypeptides; type: physicochemical
Description: As the temperature increased, the aggregates began to move, unfold and spread apart.

[3] = tested on: anti-DSG2 antibody; experiment: Anti-DSG2 antibody Meso Scale Discovery (MSD) blocking assay, anti-DSG2 antibody controls; type: binding; conditions: for ability to bind to and block anti-DSG2 antibody: MSD assay; for % inhibition: fraction C
Description: (§1) The DSG2 fusion polypeptides were tested for the ability to block anti-DSG2 antibody by an anti-DSG2 antibody Meso Scale Discovery (MSD) assay. […] The DSG2 fusion polypeptides were subjected to size exclusion chromatography and different elution fractions were examined. […] As shown in Table 9 and FIG. 4B, FIG. 4C, and FIG. 4D, enriching for fraction C improved the ability of the DSG2 fusion polypeptides to block ARVC patient serum.

[4] = target: Anti-DSG2 antibody; experiment: electrochemical immunoassay; blocking of anti-DSG2 antibodies (500 ng/mL) binding to DSG2 extracellular domain; fusion polypeptide 5 mg/mL as printed
[5] = target: Anti-DSG2 antibody; experiment: anti-DSG2 antibody MSD assay; fraction C; inhibition of the signal of anti-DSG2 antibody at 200 ng/mL (control)
[6] = target: Anti-DSG2 antibody; experiment: anti-DSG2 antibody MSD assay; fraction C; inhibition of the signal of anti-DSG2 antibody at 1000 ng/mL (control)
[7] = tested on: ARVC serum (serum obtained from ARVC patients); experiment: Anti-DSG2 antibody Meso Scale Discovery (MSD) blocking assay, ARVC serum; type: binding, human; conditions: for % inhibition: fraction C; for effect of enriching for fraction C on ability to block ARVC patient serum: size exclusion fraction C vs whole preparation, FIG. 4B-4D
Description: as §1

[8] = sample: Anti-DSG2 antibody (200 ng/mL) control
[9] = sample: Anti-DSG2 antibody (1000 ng/mL) control

Question: Which results are given for “DSG2FP#6: DSG2 extracellular domain (50-609 of SEQ ID NO: 1); amino acids 99-327 of IgG4 (S228P, L235E, P329G) (SEQ ID NO: 32)”?
Answer: Peak 1 mass % [1]: ~99%; Peak 1 mode diameter [1]: 98.03 nm; PDI [1]: 0.32; Tm1 [2]: 51.1 °C; Tm2 [2]: 60.0 °C; ability to bind to and block anti-DSG2 antibody [3]: able to bind to and block anti-DSG2 antibodies

Question: With DSG2-(IgG4)Fc (Fc fusion) as the molecule, how does the % inhibition [4] read?
Answer: > 80%

Question: For DSG2-GGGGS-(IgG4)Fc (Fc fusion), which % inhibition [4] is on record?
Answer: > 80%

Question: Which results are given for DSG2-EAAAK-(IgG1)Fc (Fc fusion)?
Answer: % inhibition [5]: 61.2%; % inhibition [6]: 85.5%

Question: Which results are given for “DSG2FP#5: amino acids 104-330 of IgG1 (L234A, L235A, P329G; SEQ ID NO: 31); DSG2 extracellular domain (50-609 of SEQ ID NO: 1)”?
Answer: Peak 1 mass % [1]: ~99%; Peak 1 mode diameter [1]: 76.72 nm; PDI [1]: 0.31; Tm1 [2]: 65.0 °C; ability to bind to and block anti-DSG2 antibody [3]: able to bind to and block anti-DSG2 antibodies

Question: With DSG2-(IgG1)Fc (Fc fusion) as the molecule, how does the % inhibition [5] read?
Answer: 54.5%

Question: And the % inhibition [6]?
Answer: 81.6%

Question: With DSG2-GGGGS-(IgG1)Fc (Fc fusion) as the molecule, how does the % inhibition [5] read?
Answer: 61.2%

Question: What about the % inhibition [6] of the same molecule?
Answer: 85.5%

Question: Which results are given for “DSG2FP#7: DSG2 extracellular domain (50-609 of SEQ ID NO: 1); GGGGS peptide linker; IgG4 Fc (S228P, L235E, P329G) (SEQ ID NO: 32)”?
Answer: Peak 1 mass % [1]: ~97%; Peak 1 mode diameter [1]: 86.23 nm; PDI [1]: 0.30; Tm1 [2]: 53.4 °C; Tm2 [2]: 60.0 °C; ability to bind to and block anti-DSG2 antibody [3]: able to bind to and block anti-DSG2 antibodies

B1: DSG2FP#2: DSG2 extracellular domain (amino acids 50-609 of SEQ ID NO: 1); amino acids 104-330 of IgG1 (L234A, L235A, P329G) (SEQ ID NO: 31) (protein)
chain: AWITAPVALREGEDLSKKNPIAKIHSDLAEERGLKITYKYTGKGITEPPFGIFVFNKDTGELNVTSILDREETPFFLLTGYALDARGNNVEKPLELRIKVLDINDNEPVFTQDVFVGSVEELSAAHTLVMKINATDADEPNTLNSKISYRIVSLEPAYPPVFYLNKDTGEIYTTSVTLDREEHSSYTLTVEARDGNGEVTDKPVKQAQVQIRILDVNDNIPVVENKVLEGMVEENQVNVEVTRIKVFDADEIGSDNWLANFTFASGNEGGYFHIETDAQTNEGIVTLIKEVDYEEMKNLDFSVIVANKAAFHKSIRSKYKPTPIPIKVKVKNVKEGIHFKSSVISIYVSESMDRSSKGQIIGNFQAFDEDTGLPAHARYVKLEDRDNWISVDSVTSEIKLAKLPDFESRYVQNGTYTVKIVAISEDYPRKTITGTVLINVEDINDNCPTLIEPVQTICHDAEYVNVTAEDLDGHPNSGPFSFSVIDKPPGMAEKWKIARQESTSVLLQQSEKKLGRSEIQFLISDNQGFSCPEKQVLTLTVCECLHGSGCREAQHDSYVGDKTHTCPPCPAPEAAGGPSVFLFPPKPKDTLMISRTPEVTCVVVDVSHEDPEVKFNWYVDGVEVHNAKTKPREEQYNSTYRVVSVLTVLHQDWLNGKEYKCKVSNKALGAPIEKTISKAKGQPREPQVYTLPPSRDELTKNQVSLTCLVKGFYPSDIAVEWESNGQPENNYKTTPPVLDSDGSFFLYSKLTVDKSRWQQGNVFSCSVMHEALHNHYTQKSLSLSPGK
Question: For B1, which “Peak 1 mass %” value [1] is on record?
Answer: ~96%

Question: What about the “Peak 1 mode diameter” value [1] of the same molecule?
Answer: 40.04 nm

Question: And the PDI [1]?
Answer: 0.32

Question: What about the Tm1 [2] of the same molecule?
Answer: 52.0 °C

Question: And the Tm2 [2]?
Answer: 61.9 °C

Question: What about the Tm3 [2] of the same molecule?
Answer: 81.9 °C

Question: What about the “ability to bind to and block anti-DSG2 antibody” value (“ability to bind” for short) [3] of the same molecule?
Answer: able to bind to and block anti-DSG2 antibodies

Question: What about the “% inhibition” value [3, 8] of the same molecule?
Answer: 54.5%

Question: And the “% inhibition” value [3, 9]?
Answer: 81.6%

Question: And the “% inhibition” value ([3]; sample: no antibody control)?
Answer: −19.1%

Question: And the “% inhibition” value ([7]; sample: ARVC serum 1)?
Answer: 3.0%

Question: What about the “% inhibition” value ([7]; sample: ARVC serum 2) of the same molecule?
Answer: 33.5%

Question: And the “% inhibition” value ([7]; sample: ARVC serum 3)?
Answer: 26.0%

Question: And the “% inhibition” value ([7]; sample: ARVC serum 4)?
Answer: 51.1%

Question: And the “% inhibition” value ([7]; sample: ARVC serum 5)?
Answer: 41.8%

Question: And the “effect of enriching for fraction C on ability to block ARVC patient serum” value [7]?
Answer: more pronounced

B2: DSG2FP#3: DSG2 extracellular domain (50-609 of SEQ ID NO: 1); linker GGGGS; amino acids 104-330 of IgG1 (L234A, L235A, P329G) (protein)
chain: AWITAPVALREGEDLSKKNPIAKIHSDLAEERGLKITYKYTGKGITEPPFGIFVFNKDTGELNVTSILDREETPFFLLTGYALDARGNNVEKPLELRIKVLDINDNEPVFTQDVFVGSVEELSAAHTLVMKINATDADEPNTLNSKISYRIVSLEPAYPPVFYLNKDTGEIYTTSVTLDREEHSSYTLTVEARDGNGEVTDKPVKQAQVQIRILDVNDNIPVVENKVLEGMVEENQVNVEVTRIKVFDADEIGSDNWLANFTFASGNEGGYFHIETDAQTNEGIVTLIKEVDYEEMKNLDFSVIVANKAAFHKSIRSKYKPTPIPIKVKVKNVKEGIHFKSSVISIYVSESMDRSSKGQIIGNFQAFDEDTGLPAHARYVKLEDRDNWISVDSVTSEIKLAKLPDFESRYVQNGTYTVKIVAISEDYPRKTITGTVLINVEDINDNCPTLIEPVQTICHDAEYVNVTAEDLDGHPNSGPFSFSVIDKPPGMAEKWKIARQESTSVLLQQSEKKLGRSEIQFLISDNQGFSCPEKQVLTLTVCECLHGSGCREAQHDSYVGGGGGGSDKTHTCPPCPAPEAAGGPSVFLFPPKPKDTLMISRTPEVTCVVVDVSHEDPEVKFNWYVDGVEVHNAKTKPREEQYNSTYRVVSVLTVLHQDWLNGKEYKCKVSNKALGAPIEKTISKAKGQPREPQVYTLPPSRDELTKNQVSLTCLVKGFYPSDIAVEWESNGQPENNYKTTPPVLDSDGSFFLYSKLTVDKSRWQQGNVFSCSVMHEALHNHYTQKSLSLSPGK
Question: For B2, which “Peak 1 mass %” value [1] is on record?
Answer: ~91%

Question: What about the “Peak 1 mode diameter” value [1] of the same molecule?
Answer: 43.23 nm

Question: What about the PDI [1] of the same molecule?
Answer: 0.30

Question: And the Tm1 [2]?
Answer: 51.3 °C

Question: What about the Tm2 [2] of the same molecule?
Answer: 62.8 °C

Question: What about the Tm3 [2] of the same molecule?
Answer: 82.1 °C

Question: And the “ability to bind” value [3]?
Answer: able to bind to and block anti-DSG2 antibodies

Question: And the “% inhibition” value [3, 8]?
Answer: 61.2%

Question: What about the “% inhibition” value [3, 9] of the same molecule?
Answer: 85.5%

Question: And the “% inhibition” value ([3]; sample: no antibody control)?
Answer: 0.7%

Question: What about the “% inhibition” value ([7]; sample: ARVC serum 1) of the same molecule?
Answer: 9.2%

Question: What about the “% inhibition” value ([7]; sample: ARVC serum 2) of the same molecule?
Answer: 27.6%

Question: And the “% inhibition” value ([7]; sample: ARVC serum 3)?
Answer: 15.5%

Question: What about the “% inhibition” value ([7]; sample: ARVC serum 4) of the same molecule?
Answer: −5.6%

Question: And the “% inhibition” value ([7]; sample: ARVC serum 5)?
Answer: 20.6%

Question: And the “effect of enriching for fraction C on ability to block ARVC patient serum” value [7]?
Answer: more pronounced

B3: DSG2FP#4: DSG2 extracellular domain (50-609 of SEQ ID NO: 1); linker EAAAK; amino acids 104-330 of IgG1 (L234A, L235A, P329G) (protein)
chain: AWITAPVALREGEDLSKKNPIAKIHSDLAEERGLKITYKYTGKGITEPPFGIFVFNKDTGELNVTSILDREETPFFLLTGYALDARGNNVEKPLELRIKVLDINDNEPVFTQDVFVGSVEELSAAHTLVMKINATDADEPNTLNSKISYRIVSLEPAYPPVFYLNKDTGEIYTTSVTLDREEHSSYTLTVEARDGNGEVTDKPVKQAQVQIRILDVNDNIPVVENKVLEGMVEENQVNVEVTRIKVFDADEIGSDNWLANFTFASGNEGGYFHIETDAQTNEGIVTLIKEVDYEEMKNLDFSVIVANKAAFHKSIRSKYKPTPIPIKVKVKNVKEGIHFKSSVISIYVSESMDRSSKGQIIGNFQAFDEDTGLPAHARYVKLEDRDNWISVDSVTSEIKLAKLPDFESRYVQNGTYTVKIVAISEDYPRKTITGTVLINVEDINDNCPTLIEPVQTICHDAEYVNVTAEDLDGHPNSGPFSFSVIDKPPGMAEKWKIARQESTSVLLQQSEKKLGRSEIQFLISDNQGFSCPEKQVLTLTVCECLHGSGCREAQHDSYVGEAAAKDKTHTCPPCPAPEAAGGPSVFLFPPKPKDTLMISRTPEVTCVVVDVSHEDPEVKFNWYVDGVEVHNAKTKPREEQYNSTYRVVSVLTVLHQDWLNGKEYKCKVSNKALGAPIEKTISKAKGQPREPQVYTLPPSRDELTKNQVSLTCLVKGFYPSDIAVEWESNGQPENNYKTTPPVLDSDGSFFLYSKLTVDKSRWQQGNVFSCSVMHEALHNHYTQKSLSLSPGK
Question: Which “Peak 1 mass %” value [1] does the source give for B3 here?
Answer: ~96%

Question: And the “Peak 1 mode diameter” value [1]?
Answer: 44.87 nm

Question: And the PDI [1]?
Answer: 0.32

Question: And the Tm1 [2]?
Answer: 50.7 °C

Question: And the Tm2 [2]?
Answer: 63.1 °C

Question: What about the Tm3 [2] of the same molecule?
Answer: 81.5 °C

Question: And the “ability to bind” value [3]?
Answer: able to bind to and block anti-DSG2 antibodies

Question: And the “% inhibition” value [3, 8]?
Answer: 61.2%

Question: And the “% inhibition” value [3, 9]?
Answer: 85.5%

Question: And the “% inhibition” value ([3]; sample: no antibody control)?
Answer: 0.7%

Question: What about the “% inhibition” value ([7]; sample: ARVC serum 1) of the same molecule?
Answer: 6.0%

Question: What about the “% inhibition” value ([7]; sample: ARVC serum 2) of the same molecule?
Answer: 9.2%

Question: And the “% inhibition” value ([7]; sample: ARVC serum 3)?
Answer: −8.0%

Question: And the “% inhibition” value ([7]; sample: ARVC serum 4)?
Answer: 0.8%

Question: And the “% inhibition” value ([7]; sample: ARVC serum 5)?
Answer: 2.0%
